experiment: yeast display, Sf9 membrane polyspecificity reagent, FACS + sequencing; frameworks hold sequencing errors
Summary of the method: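 Using colony PCR, genes from sorted yeast display clones were amplified, then sequenced on MiSeq at 2 × 250 and filtered by CDR length. The clones had been stained with 10% biotinylated, detergent-solubilized Sf9 membrane reagent for 1 hour at 4 °C and sorted by FACS into low and high (top ~1%) gates on anti-HA and streptavidin fluorescence. Polyreactivity labels come from the gate of origin.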

Sequence | polyreactivity (PSR sort gate)
QVQLVESGGGLVQAGGSLRLSCAASGFISDWYAMGWYRQAPGTERELVATIDWIGGSTYADSVKGRFTISRDNAKNTVYLQMNSLKPEDTAVYYCAADSYFIAWYGAHYAYDYWGQGTQVTVSS | low polyreactivity
QVQLVESGGGLVQAGGSLRLSCAASGFISFDKAMGWYRQAPGKERELVAAIRSGGSTNYADSVKGLFTISRDNAKNTVYLQMNSLKPEDTAVYYCATDGSLRARSTSGWEYTNGDYWGQGTQVTVSS | low polyreactivity
QVQLVESGGGLVQAGGSLRLSCAASGFISPGYAMGWYRQAPGKERELVAAISVNGGDTYYADSVKGRFTISRDNAKNTVYLQMYSLKPEDTAVYYCAAERGVDDSARYGDYDYWGQGTQVTVSS | low polyreactivity
QVQLVESGGGLVQAGGSLRLSCAASGFISYYYAMGWYRQAPGKEREFVAAITSSGGSTRYADSVKGRFSISRDNATNTVYLQMNSLKPEDTAVYYCAAGNPYFWPYDYWGQGTQVTVSS | low polyreactivity
QVQLVESGGGLVQAGGSLRLSCAASGFIVTPYTMGWYRQAAGKERELVAAITDGSSTYYADSVKGRFTISRDNAKNTDYLQMNSLKPEETAVYYFNADGKPPYISWLYDYWGHGTQVTVSS | low polyreactivity
QVQLVESGGGLVQAGGSLRLSCAASGFIYFGNAMGWYRQAPGKERELVAAINSNGSSTYYADSVKGRFTISRDNAKNTVYFLMNSLQPEDTAVYYCAKKISVHEGAWPSNPDGDYWGQGTQVTVSS | low polyreactivity
QVQLVESGGGLVQAGGSLRLSCAASGFIYKYAMGWYRPAPGKERELVAAISQNGGSTRYADSVKGRFTISRDNAKNTVYLQMNSLKPEDTAVYYCNTGVARGYKYWGQGTQVTVSS | high polyreactivity
QVQLVESGGGLVQAGGSLRLSCAASGFIYNTKGWYRQAPGKERELVAAISRSGGSTDYADSVKGRFTISRDNAKNTVYLQMTSLKPEDTAVYYCAARRPYRDGYDYWGQGTQVTVSS | high polyreactivity
QVQLVESGGGLVQAGGSLRLSCAASGFIYPRNTMGWYRQAPGKERELVAAITWIGGRTYYADSVKGRFTISRDNAKNTVYLQMNSLKPEDTAVYYCAADYSVFYDEDYWGQGTQVTVSS | low polyreactivity
QVQLVESGGGLVQAGGSLRLSCAASGFIYRLNAMGWYRQAPGKERELVAAISTYADSVKGRFTFSRDNAKTTVYLQMNSLKPEDTAVYYCAKDYTDSYAYRTGFDYWGQGTQVTVSS | low polyreactivity
QVQLVESGGGLVQAGGSLRLSCAASGFIYRVYGMGWYRQAPVKERELLAAISGRGGSTYYADSVKGRFTISRDNANNTVYLQMHSLKPEDTAVYYCYTLDIRTYSKYDYWGQGTQVTVSS | high polyreactivity
QVQLVESGGGLVQAGGSLRLSCAASGFIYWYYAMGWYRQAPGKERELVAAISGTGGTTYYADSVKGRFTISRDNAKNTVYLQMKSLKPEDTAVYYCNDRYDSRRTAIGYDYWGQGTQVTGSS | low polyreactivity
QVQLVESGGGLVQAGGSLRLSCAASGFIYYGYAMGWYRQAPGKEMELVAAITSGGSTTYADSVKGRFTISRDNAKNTVYLQMNSLKPVDTAVYYGAASVCREVGWGQGTQVTVSS | high polyreactivity
QVQLVESGGGLVQAGGSLRLSCAASGFLFRYYTMGWYRQAPGKERDLVAVITRGGSTYYADSVKGRFTISRDNAKNTVYLQMNSLKPEDTAVYYCAAVRTKVWRGPEMDYWGQGTQVTVSS | high polyreactivity
QVQLVESGGGLVQAGGSLRLSCAASGFNFDANPLGWYRQAAGKERELVAAISWSGGSTYYADSVKGRFTISRDYANNSVYLQMNTLKPEDTAVYYCAADILGYSYEYWGQGTQVTVSS | high polyreactivity
QVQLVESGGGLVQAGGSLRLSCAASGFNFDENAMGWYRQAPGKEREFYAAISISGSSTYADSVKGRFTISRDNAKNTVYLQMNCLKPEDTAVYFCAASYTTEYTGDGHSGVGDGDYWGQGTQVTVSS | low polyreactivity
QVQLVESGGGLVQAGGSLRLSCAASGFNFDFYAMGWYRQAPGKEREMVAAISKNDGTTYFAYSVKGRFTISRDNAKNTVYLQMNSLKPEDTAVYFCAAESGYPVYTYVSSGVYWGQGTQVTVSS | low polyreactivity
QVQLVESGGGLVQAGGSLRLSCAASGFNFDYNAMGWYRQAPGKERELVAAISWSGGRTYYADSVKGRFTISRDNAKNTVYLQMNSLKPEDTAVYYCAARARNYPPYNYWGQGTQVTVSS | high polyreactivity
QVQLVESGGGLVQAGGSLRLSCAASGFNFNKNAMGWYRQAPGKERELVAAISGTGGSTYYADSVKVRFTISRDNAKNTVYLQMNSLKPEDTAVYFCASRRYRQFSTGGQPGYYWGQGTLVTVSS | high polyreactivity
QVQLVESGGGLVQAGGSLRLSCAASGFNFRYYTMGWYRQAPGTERELVAVITSGGTTYYADSVKGRFTISRDNAKNTVYLQMNSLKPEDTAVYYCAADYRPRLYGVGVDYWGQGTQVTVSS | low polyreactivity
QVQLVESGGGLVQAGGSLRLSCAASGFNFSPYAMGWYRQAPGKERELVAAISSSGGSTYYADSVKGRFTISRDNAKNTVYLQMNSLKPEDTAVYYCNAAGGYRTSPSDYWGQGTQVTVSS | high polyreactivity
QVQLVESGGGLVQAGGSLRLSCAASGFNFSYYAMGWYRHAPGKEWELVAAISRSGGSTYYADSVKGRFTISRDNAKNTVYLQMNSLKPEDTAVYYCAKRIKDRSGEAYVGLYYWGQGTQVTVSS | high polyreactivity

Sequence | polyreactivity (PSR sort gate)
QVQLVESGGGLVQAGGSLRLSCAASGFNFYYYAMGWYRQAPGKERELVAVLTESGSSTYYADSVKGRFTISRDNAKNTVYLQMNSLKPEDSAVYYCNADFWPFTGKYDSVHLDYWGQATQVTVSS | low polyreactivity
QVQLVESGGGLVQAGGSLRLSCAASGFNIASYDMGWYRQAPGKERELVAAISKGGGRTYYADSVKGRFTISRDIAKNTVYLQMNSLKPEDTAVDYCAAEYRGYLHYHFQYLFDYWGQGTQVNVSS | low polyreactivity
QVQLVESGGGLVQAGGSLRLSCAASGFPFPDYAMGWYRQAPGKERELVAGISSTGDSTYYADSVKGRFTISRDNAKNTVYLQMNSLKPEDTAVYYCNAAQERPIIILFSKYDYWGQGTQVTVSS | low polyreactivity
QVQLVESGGGLVQAGGSLRLSCAASGFSFRVYTMGWYRQAPGKERELVAAISYRGGRTYYADTVKGRFTISRDNAKNNVYLQMNSLKPEDSALYYCAATAIYPSAWRMDYWGQGTLVTVSS | high polyreactivity
QVQLVESGGGLVQAGGSLRLSCAASGFSIAYYAMGWYRQEPGKERELVAAISRRGGSTYYADSVKGRFTISRDNAKNTVYLQMNSLKPEDTAVYYCAKAHYLSDYNYWGQGTQVTVSS | high polyreactivity
QVQLVESGGGLVQAGGSLRLSCAASGFTASYAMGWYRQAPWKERELVATINSGGGSTRYADSVKGRFTISRDNAKNTVYLQMNSLKPEDTAVYYCAKRWRRNFDYWGQGTQVTVSS | high polyreactivity
QVQLVESGGGLVQAGGSLRLSCAASGFTCSRYAMGWYRQAPGKERELVAAISSGGSTNYADSVKGRFTISRDNAKNTVYLQMNSLKPEDTAVYYCAVTWRYKGYYWGQGTQVTVSS | high polyreactivity
QVQLVESGGGLVQAGGSLRLSCAASGFTCVPYAMGWYSQAPGKARELVAAITGGGSTYYADSVKGRFTISRDNAKNTVYFQMHSLKPEDTAVYYCAAREARSHRYSNRVYYWGQGTQVTVSS | high polyreactivity
QVQLVESGGGLVQAGGSLRLSCAASGFTCVRYAMGWYRPAPGKEREFVASISARGGNTFYADSVKGRFTISRDHAKNTVYLQMNSLKPEDTAVYYCAKRGPYGTGYGYWGQGTQLTVSS | high polyreactivity
QVQLVESGGGLVQAGGSLRLSCAASGFTCYNYAMGWYRQAPGKERELVAAITSSGTSTYYADSVKGRFTISRDNAKNTVYLQMNSLKPEDTAVYYCATYVAYHRGYSTYDHWGQGSQVTVSS | low polyreactivity
QVQLVESGGGLVQAGGSLRLSCAASGFTFAAYAMGWYRQAPGKERELVAAISWSGGSTRYADCVKGRYTISRDNAKNTVYLQKNSLIPEDTAVYYCNAVGYRVGIYSSKGDYWGQGTQVTVSS | high polyreactivity
QVQLVESGGGLVQAGGSLRLSCAASGFTFAFYAMGWYRQAPGKERELVAAISWDGVTTYYADSVKGRFTISRDNAKNTVYLQMNSLKPEDTAVYYCAADYPDYAGSFWPSGMYYWGQGTQVTVSS | low polyreactivity
QVQLVESGGGLVQAGGSLRLSCAASGFTFAFYAMGWYRQAPGKERELVAAITGSGGSTYYADSVKGRFTISRDNAKNTVYLQMNSLKPEDTAVYYCAADLVVDYEWYDYWGQGTQVTVSS | high polyreactivity
QVQLVESGGGLVQAGGSLRLSCAASGFTFAGYVLGWYRKAPGKDRELVAAISNSGGRTYADSVKGRFTISRDNAKNTVYLQMNSLKPEDTAVYYCAKKPGGFSQASRVDYDYWGQGTQVTVSS | low polyreactivity
QVQLVESGGGLVQAGGSLRLSCAASGFTFAKYAMGWYRQAPGKERELVAAISSSGGRTYYADSVQGRFTISRDNAKNTVYLQMNSLKPEDTAVYYCAADFSGPFDYWGQGTQVTVSS | high polyreactivity
QVQLVESGGGLVQAGGSLRLSCAASGFTFALYAMGWYRQAPGKEREVVASIDNGVSTNYADSVKGRFTISRDNAKNTVYLQMNSLKPEDTAVYYCAKGPGYGFYKLLSYDSWGQGTQVTVSS | low polyreactivity
QVQLVESGGGLVQAGGSLRLSCAASGFTFAQYAMGWYRQAPGKERELVATISRRGGSTYYADSVKGRFTISRDNAKNTVYLQMNSLKPEDTAVYYCTAAKYLYRHGFLSAGDMYYWGQGTQVTVSS | high polyreactivity
QVQLVESGGGLVQAGGSLRLSCAASGFTFARNAMGWNRQAPGKERELVASITQRGGSTNYADSVKGRFTISRDNAKNTVYFQLNSLKPEDTAVYYCNKASQLYYIQGTYSYGYWGQGSQVTVSS | low polyreactivity
QVQLVESGGGLVQAGGSLRLSCAASGFTFARNAMGWYRQAPGKERELVAAINRSGGSTYYADSVKGRFTISRDNAKNTVYLQMNSLKPEDTAVYYCNKPRLAQQGYDYWGQGTQVTVSS | high polyreactivity
QVQLVESGGGLVQAGGSLRLSCAASGFTFARNAMGWYRQAPGKEWELGATISTSGGSTYYADSVKGRFTISRDNAKNTVYLQMNSLKPEDSAVYYFAASYWKGYRRDYWGQGTQVTVSS | low polyreactivity
QVQLVESGGGLVQAGGSLRLSCAASGFTFATNAMGWYRQAPGTERELVAAISSRGGSTYYADSVKGRFTISRDNAKNTVYLQMNSLKPEDTAVYYCNAYRRLGGYDYWGQGTQVTVSS | high polyreactivity
